Tested on: Escherichia coli TOP10
Assay: shrunken log2 fold change of peptide-encoding DNA abundance (4.5 h post-induction vs induction); higher = less antimicrobial activity (less host growth inhibition)
Conditions: time post-induction: 4.5 h; library: site-saturation at positions 5, 18, 19, 20
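Also: peptides expressed intracellularly from a pBAD plasmid library in pooled LB shake-flask culture, induced with 0.3% L-arabinose, DNA abundance read by NGS, three biological replicates, DESeq2 with apeglm shrinkage.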

| Sequence | shrunken log2 fold change |
| --- | --- |
| RRIRWRPPRLPRPRPRPLKKPRP | 0.0518 |
| RRIRLRPPRLPRPRPRPWLTPRP | -0.18 |
| RRIRCRPPRLPRPRPRPKEPPRP | 0.302 |
| RRIRGRPPRLPRPRPRPPFSPRP | 0.444 |
| RRIRARPPRLPRPRPRPNWDPRP | 0.0564 |
| RRIRPRPPRLPRPRPRPCCEPRP | -0.116 |
| RRIRIRPPRLPRPRPRPYPLPRP | -0.176 |
| RRIRLRPPRLPRPRPRPMFMPRP | -0.208 |
| RRIRSRPPRLPRPRPRPTMNPRP | -0.225 |
| RRIRLRPPRLPRPRPRPGDYPRP | -0.0616 |
| RRIRSRPPRLPRPRPRPFMGPRP | -0.216 |
| RRIRSRPPRLPRPRPRPDFVPRP | -0.106 |
| RRIRMRPPRLPRPRPRPELEPRP | 4.13 |
| RRIRRRPPRLPRPRPRPFSTPRP | -0.0277 |
| RRIRTRPPRLPRPRPRPCHHPRP | -0.0688 |
| RRIRLRPPRLPRPRPRPRLWPRP | 0.399 |
| RRIRMRPPRLPRPRPRPEKCPRP | -0.0105 |
| RRIRCRPPRLPRPRPRPDCLPRP | -0.494 |
| RRIRIRPPRLPRPRPRPWVIPRP | -0.0141 |
| RRIRDRPPRLPRPRPRPYTPPRP | -0.95 |
| RRIRQRPPRLPRPRPRPCTWPRP | -0.464 |
| RRIRCRPPRLPRPRPRPWYMPRP | -0.838 |
| RRIRIRPPRLPRPRPRPYDPPRP | -0.0306 |
| RRIRYRPPRLPRPRPRPHKIPRP | -0.226 |
| RRIRMRPPRLPRPRPRPCDAPRP | 0.261 |

| Sequence | shrunken log2 fold change |
| --- | --- |
| RRIRIRPPRLPRPRPRPYLDPRP | -1.02 |
| RRIRLRPPRLPRPRPRPCGGPRP | 0.091 |
| RRIRERPPRLPRPRPRPTQDPRP | 0.217 |
| RRIRLRPPRLPRPRPRPMPAPRP | 0.221 |
| RRIRGRPPRLPRPRPRPINAPRP | 0.288 |
| RRIRYRPPRLPRPRPRPQTRPRP | -0.322 |
| RRIRCRPPRLPRPRPRPMHSPRP | -0.0254 |
| RRIRHRPPRLPRPRPRPYYNPRP | -1.28 |
| RRIRTRPPRLPRPRPRPYCIPRP | -0.205 |
| RRIRCRPPRLPRPRPRPVEKPRP | 0.551 |
| RRIRRRPPRLPRPRPRPKNQPRP | 0.173 |
| RRIRARPPRLPRPRPRPGDKPRP | 0.173 |
| RRIRMRPPRLPRPRPRPQAAPRP | 0.87 |
| RRIRGRPPRLPRPRPRPPENPRP | 1.11 |
| RRIRSRPPRLPRPRPRPFNLPRP | -0.218 |
| RRIRQRPPRLPRPRPRPMPSPRP | -0.162 |
| RRIRQRPPRLPRPRPRPNEIPRP | -0.217 |
| RRIRFRPPRLPRPRPRPGGAPRP | 0.263 |
| RRIRVRPPRLPRPRPRPAVVPRP | 0.213 |
| RRIRDRPPRLPRPRPRPLEMPRP | 0.0813 |
| RRIRQRPPRLPRPRPRPFWPPRP | 0.083 |
| RRIRRRPPRLPRPRPRPGHIPRP | -0.116 |
| RRIRNRPPRLPRPRPRPVVEPRP | -0.00885 |
| RRIRSRPPRLPRPRPRPSRRPRP | 0.208 |
| RRIRQRPPRLPRPRPRPYFDPRP | -0.202 |

| Sequence | shrunken log2 fold change |
| --- | --- |
| RRIRSRPPRLPRPRPRPDDQPRP | 0.143 |
| RRIRSRPPRLPRPRPRPIAKPRP | -0.0775 |
| RRIRHRPPRLPRPRPRPKHIPRP | -0.413 |
| RRIRPRPPRLPRPRPRPFNIPRP | -0.293 |
| RRIRPRPPRLPRPRPRPDPQPRP | -0.0397 |
| RRIRFRPPRLPRPRPRPGKWPRP | -0.0163 |
| RRIRARPPRLPRPRPRPVRLPRP | 0.371 |
| RRIRERPPRLPRPRPRPGHPPRP | 0.143 |
| RRIRHRPPRLPRPRPRPDHDPRP | 0.0111 |
| RRIRKRPPRLPRPRPRPSTNPRP | 0.0826 |
| RRIRKRPPRLPRPRPRPRCCPRP | 0.491 |
| RRIRWRPPRLPRPRPRPVFGPRP | 0.159 |
| RRIRLRPPRLPRPRPRPRCDPRP | -0.0342 |
| RRIRHRPPRLPRPRPRPSPVPRP | -0.0462 |
| RRIRLRPPRLPRPRPRPNMMPRP | -0.762 |
| RRIRARPPRLPRPRPRPCEFPRP | 0.168 |
| RRIRVRPPRLPRPRPRPKKGPRP | 0.13 |
| RRIRARPPRLPRPRPRPKLHPRP | 0.366 |
| RRIRCRPPRLPRPRPRPTRRPRP | 0.391 |
| RRIRYRPPRLPRPRPRPNRHPRP | -0.614 |
| RRIRERPPRLPRPRPRPIGRPRP | 0.0419 |
| RRIRMRPPRLPRPRPRPYWDPRP | -0.0427 |
| RRIRQRPPRLPRPRPRPQWLPRP | 0.0957 |
| RRIRERPPRLPRPRPRPNPYPRP | -0.304 |
| RRIRERPPRLPRPRPRPAYPPRP | -0.403 |

| Sequence | shrunken log2 fold change |
| --- | --- |
| RRIRLRPPRLPRPRPRPEGWPRP | 0.862 |
| RRIRMRPPRLPRPRPRPQCMPRP | -0.0822 |
| RRIRNRPPRLPRPRPRPPATPRP | 0.615 |
| RRIRRRPPRLPRPRPRPHFHPRP | -0.217 |
| RRIRWRPPRLPRPRPRPCYQPRP | 0.0103 |
| RRIRRRPPRLPRPRPRPWIYPRP | -0.118 |
| RRIRWRPPRLPRPRPRPISCPRP | -0.0467 |
| RRIRWRPPRLPRPRPRPILSPRP | -0.422 |
| RRIRRRPPRLPRPRPRPVVSPRP | 0.132 |
| RRIRVRPPRLPRPRPRPKHNPRP | -0.292 |
| RRIRFRPPRLPRPRPRPVMYPRP | -0.195 |
| RRIRIRPPRLPRPRPRPMCQPRP | 0.0317 |
| RRIRKRPPRLPRPRPRPKFSPRP | 0.0774 |
| RRIRGRPPRLPRPRPRPQYPPRP | -0.865 |
| RRIRHRPPRLPRPRPRPIKWPRP | 0.126 |
| RRIRLRPPRLPRPRPRPNANPRP | -0.101 |
| RRIRTRPPRLPRPRPRPYKCPRP | -0.372 |
| RRIRVRPPRLPRPRPRPYRDPRP | -0.278 |
| RRIRGRPPRLPRPRPRPTGAPRP | 1.31 |
| RRIRLRPPRLPRPRPRPKAMPRP | -0.023 |
| RRIRIRPPRLPRPRPRPSTYPRP | -1.63 |
| RRIRSRPPRLPRPRPRPLFMPRP | -0.236 |
| RRIRQRPPRLPRPRPRPTKQPRP | 0.045 |
| RRIRIRPPRLPRPRPRPGQQPRP | 0.0905 |
| RRIRPRPPRLPRPRPRPDDNPRP | -0.0275 |

| Sequence | shrunken log2 fold change |
| --- | --- |
| RRIRARPPRLPRPRPRPVIKPRP | -0.136 |
| RRIRVRPPRLPRPRPRPYHTPRP | -0.15 |
| RRIRYRPPRLPRPRPRPVGHPRP | -0.076 |
| RRIRIRPPRLPRPRPRPNYWPRP | -0.728 |
| RRIRLRPPRLPRPRPRPQPRPRP | 0.67 |
| RRIRPRPPRLPRPRPRPGNPPRP | -0.043 |
| RRIRCRPPRLPRPRPRPITKPRP | -0.297 |
| RRIRARPPRLPRPRPRPFFTPRP | 0.617 |
| RRIRRRPPRLPRPRPRPSRTPRP | 0.141 |
| RRIRARPPRLPRPRPRPCETPRP | 0.00546 |
| RRIRLRPPRLPRPRPRPDPSPRP | 0.0199 |
| RRIRERPPRLPRPRPRPAEIPRP | -0.207 |
| RRIRRRPPRLPRPRPRPKKWPRP | 0.114 |
| RRIRGRPPRLPRPRPRPDEQPRP | -0.0342 |
| RRIRQRPPRLPRPRPRPTRMPRP | 0.185 |
| RRIRTRPPRLPRPRPRPRSTPRP | 0.377 |
| RRIRNRPPRLPRPRPRPVAYPRP | 0.0201 |
| RRIRYRPPRLPRPRPRPKWWPRP | -0.0129 |
| RRIRHRPPRLPRPRPRPGYGPRP | -0.318 |
| RRIRRRPPRLPRPRPRPDYVPRP | 0.0255 |
| RRIRVRPPRLPRPRPRPFGNPRP | 0.0432 |
| RRIRTRPPRLPRPRPRPYPMPRP | -1.43 |
| RRIRFRPPRLPRPRPRPDQYPRP | -0.169 |
| RRIRHRPPRLPRPRPRPTDSPRP | 0.0894 |
| RRIRTRPPRLPRPRPRPIVEPRP | 0.0431 |

| Sequence | shrunken log2 fold change |
| --- | --- |
| RRIRQRPPRLPRPRPRPHSPPRP | 0.000964 |
| RRIRSRPPRLPRPRPRPIDMPRP | -0.00448 |
| RRIRYRPPRLPRPRPRPQKSPRP | -0.208 |
| RRIRDRPPRLPRPRPRPLEAPRP | 0.679 |
| RRIRHRPPRLPRPRPRPEGSPRP | -0.0192 |
| RRIRYRPPRLPRPRPRPDYVPRP | -0.447 |
| RRIRCRPPRLPRPRPRPVAIPRP | -0.156 |
| RRIRMRPPRLPRPRPRPPFTPRP | 0.309 |
| RRIRWRPPRLPRPRPRPMNCPRP | 0.0143 |
| RRIRERPPRLPRPRPRPNASPRP | -0.0996 |
| RRIRFRPPRLPRPRPRPLHIPRP | -0.7 |
| RRIRGRPPRLPRPRPRPSPYPRP | -0.148 |
| RRIRCRPPRLPRPRPRPHSGPRP | 0.00506 |
| RRIRERPPRLPRPRPRPNCGPRP | -0.26 |
| RRIRPRPPRLPRPRPRPYMPPRP | -0.854 |
| RRIRWRPPRLPRPRPRPWEDPRP | -0.0135 |
| RRIRMRPPRLPRPRPRPREQPRP | 0.0355 |
| RRIRCRPPRLPRPRPRPIPDPRP | 0.106 |
| RRIRCRPPRLPRPRPRPCWNPRP | -0.49 |
| RRIRPRPPRLPRPRPRPCQLPRP | -0.659 |
| RRIRCRPPRLPRPRPRPDYWPRP | -0.437 |
| RRIRSRPPRLPRPRPRPKNMPRP | -0.324 |
| RRIRDRPPRLPRPRPRPADHPRP | -0.0509 |
| RRIRTRPPRLPRPRPRPINWPRP | -0.0841 |
| RRIRERPPRLPRPRPRPLAGPRP | -0.113 |

— the supplement of paper PMC9112550, “Optimization of the antimicrobial peptide Bac7 by deep mutational scanning” (BMC Biology, 2022)
